Laboratory results reported in patent US20140087995A1 (published 2014).
Numbered stars: 1 amine (or outer) side, 2 acyl side, 3 side chain; on linkers, the order of the positions; unused ones are H or OH. Bridge positions count the residues as written; N and C are the ends. Side chains are listed from the residue outwards. Ends that are not written are not given here. * marks the point of attachment. C20 diacid = O=C(O)CCCCCCCCCCCCCCCCCCC(=O)*; γGlu = O=C(O)[C@H](CCC(=O)[*:2])N[*:1]; AEEA = NCCOCCOCC(=O)O

T1: rat calcitonin receptor (rat, UniProt P32214 25-516)
T1 construct: whole, on cells; also called rCTR; rat calcitonin (a) receptor
T1 sequence (looked up): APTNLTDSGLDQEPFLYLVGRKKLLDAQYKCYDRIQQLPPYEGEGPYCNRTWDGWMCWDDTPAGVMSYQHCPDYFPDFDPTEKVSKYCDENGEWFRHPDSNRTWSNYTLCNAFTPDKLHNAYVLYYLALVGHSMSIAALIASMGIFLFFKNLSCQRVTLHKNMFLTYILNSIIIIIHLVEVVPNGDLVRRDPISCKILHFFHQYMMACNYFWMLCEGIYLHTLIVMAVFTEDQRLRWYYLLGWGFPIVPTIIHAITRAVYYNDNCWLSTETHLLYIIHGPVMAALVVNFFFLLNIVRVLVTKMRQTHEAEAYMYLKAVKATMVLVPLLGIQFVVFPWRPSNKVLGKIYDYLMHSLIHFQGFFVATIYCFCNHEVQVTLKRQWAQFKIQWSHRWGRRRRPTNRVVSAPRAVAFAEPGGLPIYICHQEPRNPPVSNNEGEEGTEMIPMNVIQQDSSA

T2: human calcitonin receptor (human, UniProt P30988 25-474)
T2 construct: whole, on cells; also called hCTR; hCT
T2 sequence (looked up): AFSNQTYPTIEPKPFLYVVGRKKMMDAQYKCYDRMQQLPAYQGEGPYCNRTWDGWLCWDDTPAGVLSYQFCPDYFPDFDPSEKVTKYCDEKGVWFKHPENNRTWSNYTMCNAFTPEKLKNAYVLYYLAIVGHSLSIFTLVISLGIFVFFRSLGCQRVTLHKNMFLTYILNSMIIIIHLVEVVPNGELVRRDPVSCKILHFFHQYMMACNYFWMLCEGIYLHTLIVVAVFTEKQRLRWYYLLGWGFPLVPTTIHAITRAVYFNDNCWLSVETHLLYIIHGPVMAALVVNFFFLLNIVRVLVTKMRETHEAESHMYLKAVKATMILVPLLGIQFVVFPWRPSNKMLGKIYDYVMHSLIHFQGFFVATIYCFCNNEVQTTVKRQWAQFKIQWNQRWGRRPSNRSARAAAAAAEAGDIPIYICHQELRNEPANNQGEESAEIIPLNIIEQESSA

T3: rat amylin receptor (rat calcitonin receptor + rat RAMP 3) (rat, UniProt P32214 25-516; Q9JJ73 23-147)
T3 construct: whole, on cells; also called rAmylin-R; rat amylin 3(a) receptor
T3 sequence (looked up) 1: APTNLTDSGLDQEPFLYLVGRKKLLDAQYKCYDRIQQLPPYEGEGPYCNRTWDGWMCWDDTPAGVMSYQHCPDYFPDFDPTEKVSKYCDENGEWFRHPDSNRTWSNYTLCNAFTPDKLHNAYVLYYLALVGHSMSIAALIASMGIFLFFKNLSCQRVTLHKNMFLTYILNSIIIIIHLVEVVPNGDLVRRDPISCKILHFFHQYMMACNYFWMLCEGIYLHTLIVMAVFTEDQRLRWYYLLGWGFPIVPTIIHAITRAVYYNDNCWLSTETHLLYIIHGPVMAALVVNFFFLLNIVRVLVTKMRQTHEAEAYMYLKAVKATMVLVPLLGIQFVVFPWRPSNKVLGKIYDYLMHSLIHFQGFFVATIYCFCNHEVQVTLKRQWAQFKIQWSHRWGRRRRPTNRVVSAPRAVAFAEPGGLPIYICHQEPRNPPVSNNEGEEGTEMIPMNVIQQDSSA
T3 sequence (looked up) 2: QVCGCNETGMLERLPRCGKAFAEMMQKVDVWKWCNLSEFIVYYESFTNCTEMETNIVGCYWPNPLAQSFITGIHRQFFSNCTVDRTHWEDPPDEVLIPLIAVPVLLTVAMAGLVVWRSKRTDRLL


Legend:
rat calcitonin receptor [1] = target: T1, rat calcitonin receptor; assay: ratio of binding IC50s: rat calcitonin receptor over rat amylin receptor (reference)
[2] = target: T2, human calcitonin receptor; assay: ratio of binding IC50s: human calcitonin receptor over human amylin receptor (reference)
Description: The resulting pellet was resuspended, homogenized and centrifuged (20.000 rpm, 15 min) in a buffer containing 20 mM Na-HEPES and 0.1 mM EDTA (pH 7.4, buffer 2). The resulting pellet was resuspended in buffer 2 and protein concentration was measured (BCA protein Assay, Pierce). The homogenate was kept cold during the whole procedure. The membranes were kept at −80° C. until use. The assay was performed in a 384 well Optiplate (PerkinElmer) in a total volume of 40 ul. Membranes were mixed with SPA beads. Final concentration of membranes 35 ng/μL final and SPA beads was 0.05 mg/well. Test-compounds were dissolved in DMSO and further diluted in assay buffer (50 mM Hepes, pH 7.4, 1 mM CaCl2, 5 mM MgCl₂, 0.1% OA and 0.02% Tween20). […] The final mixture was incubated with shaking at 400 rpm for 120 min at 25° C. prior to centrifugation (1500 rpm, 10 min). Samples were analyzed on TopCounter™ (Packard). The IC₅₀ was calculated using (one site binding competition analysis) GraphPad Prism5 as a measure of receptor affinity.
Membranes were prepared in the following way; the cells were rinsed with PBS and incubated with Versene for approximately 5 min before harvesting. The cells were flushed with PBS and the cell-suspension was centrifuged for 5 min at 1000 rpm. Cells were homogenized (Ultrathurrax) in a buffer containing 20 mM Na-HEPES and 10 mM EDTA (pH 7.4) and centrifuged at 20.000 rpm for 15 min. The resulting pellet was resuspended, homogenized and centrifuged (20.000 rpm, 15 min) in a buffer containing 20 mM Na-HEPES and 0.1 mM EDTA (pH 7.4, buffer 2). The resulting pellet was resuspended in buffer 2 and protein concentration was measured (BCA protein Assay, Pierce). The homogenate was kept cold during the whole procedure. The membranes were kept at −80° C. until use. Assay was performed in a 384 well Optiplate (PerkinElmer) in a total volume of 40 ul. Membranes were mixed with SPA beads.

rat calcitonin receptor [3] = target: T1, rat calcitonin receptor; assay: SPA competition with 125I-calcitonin, membranes of BHK cells with rat calcitonin receptor (Assay VIII)
[4] = target: T3, rat amylin receptor (rat calcitonin …); assay: SPA competition with 125I-rat amylin, membranes of BHK cells with rat calcitonin receptor + rat RAMP3 (Assay VI)

Ratio rCT/rAmylin binding (rat calcitonin receptor [1])	Ratio hCT/hAmylin binding [2]	IC50 (rat calcitonin receptor [3])	IC50 [4]	Binder
69.9	60.7	90.6 nM	1.3 nM	K([AEEA-γGlu-C20 diacid])CNTATCATQRLANFLRHSSPNFGAIPSSTNVGRNTY-NH2 (disulfide 2-7; N-terminus assumed; SMILES CC[C@H](C)[C@H](NC(=O)[C@H](C)NC(=O)CNC(=O)[C@H](Cc1ccccc1)NC(=O)[C@H](CC(N)=O)NC(=O)[C@@H]1CCCN1C(=O)[C@H](CO)NC(=O)[C@H](CO)NC(=O)[C@H](Cc1c[nH]cn1)NC(=O)[C@H](CCCNC(=N)N)NC(=O)[C@H](CC(C)C)NC(=O)[C@H](Cc1ccccc1)NC(=O)[C@H](CC(N)=O)NC(=O)[C@H](C)NC(=O)[C@H](CC(C)C)NC(=O)[C@H](CCCNC(=N)N)NC(=O)[C@H](CCC(N)=O)NC(=O)[C@@H](NC(=O)[C@H](C)NC(=O)[C@@H]1CSSC[C@H](NC(=O)[C@@H](N)CCCCNC(=O)COCCOCCNC(=O)CC[C@H](NC(=O)CCCCCCCCCCCCCCCCCCC(=O)O)C(=O)O)C(=O)N[C@@H](CC(N)=O)C(=O)N[C@@H]([C@@H](C)O)C(=O)N[C@@H](C)C(=O)N[C@@H]([C@@H](C)O)C(=O)N1)[C@@H](C)O)C(=O)N1CCC[C@H]1C(=O)N[C@@H](CO)C(=O)N[C@@H](CO)C(=O)N[C@H](C(=O)N[C@@H](CC(N)=O)C(=O)N[C@H](C(=O)NCC(=O)N[C@@H](CCCNC(=N)N)C(=O)N[C@@H](CC(N)=O)C(=O)N[C@H](C(=O)N[C@@H](Cc1ccc(O)cc1)C(N)=O)[C@@H](C)O)C(C)C)[C@@H](C)O, synthetic analogue of human amylin; also called compound 78)
179	146	8.79 nM	0.049 nM	K([AEEA-γGlu-C20 diacid])CNTATCATQRLANFLRHSSPNFGAIPSPTPVGSNTY-NH2 (disulfide 2-7; N-terminus assumed; SMILES CC[C@H](C)[C@H](NC(=O)[C@H](C)NC(=O)CNC(=O)[C@H](Cc1ccccc1)NC(=O)[C@H](CC(N)=O)NC(=O)[C@@H]1CCCN1C(=O)[C@H](CO)NC(=O)[C@H](CO)NC(=O)[C@H](Cc1c[nH]cn1)NC(=O)[C@H](CCCNC(=N)N)NC(=O)[C@H](CC(C)C)NC(=O)[C@H](Cc1ccccc1)NC(=O)[C@H](CC(N)=O)NC(=O)[C@H](C)NC(=O)[C@H](CC(C)C)NC(=O)[C@H](CCCNC(=N)N)NC(=O)[C@H](CCC(N)=O)NC(=O)[C@@H](NC(=O)[C@H](C)NC(=O)[C@@H]1CSSC[C@H](NC(=O)[C@@H](N)CCCCNC(=O)COCCOCCNC(=O)CC[C@H](NC(=O)CCCCCCCCCCCCCCCCCCC(=O)O)C(=O)O)C(=O)N[C@@H](CC(N)=O)C(=O)N[C@@H]([C@@H](C)O)C(=O)N[C@@H](C)C(=O)N[C@@H]([C@@H](C)O)C(=O)N1)[C@@H](C)O)C(=O)N1CCC[C@H]1C(=O)N[C@@H](CO)C(=O)N1CCC[C@H]1C(=O)N[C@H](C(=O)N1CCC[C@H]1C(=O)N[C@H](C(=O)NCC(=O)N[C@@H](CO)C(=O)N[C@@H](CC(N)=O)C(=O)N[C@H](C(=O)N[C@@H](Cc1ccc(O)cc1)C(N)=O)[C@@H](C)O)C(C)C)[C@@H](C)O, synthetic analogue of human amylin; also called compound 54)
130	104	10.9 nM	0.084 nM	K([AEEA-γGlu-C20 diacid])CNTATCATQRLANFLRHSSPNFGAIPPSTPVGSNTY-NH2 (disulfide 2-7, synthetic analogue of human amylin; also called compound 53)
77.2	51.8	6.25 nM	0.081 nM	K([AEEA-γGlu-C20 diacid])CNTATCATQRLANFLRHSSPNFGAIPPSTNVGPNTY-NH2 (disulfide 2-7; N-terminus assumed; SMILES CC[C@H](C)[C@H](NC(=O)[C@H](C)NC(=O)CNC(=O)[C@H](Cc1ccccc1)NC(=O)[C@H](CC(N)=O)NC(=O)[C@@H]1CCCN1C(=O)[C@H](CO)NC(=O)[C@H](CO)NC(=O)[C@H](Cc1c[nH]cn1)NC(=O)[C@H](CCCNC(=N)N)NC(=O)[C@H](CC(C)C)NC(=O)[C@H](Cc1ccccc1)NC(=O)[C@H](CC(N)=O)NC(=O)[C@H](C)NC(=O)[C@H](CC(C)C)NC(=O)[C@H](CCCNC(=N)N)NC(=O)[C@H](CCC(N)=O)NC(=O)[C@@H](NC(=O)[C@H](C)NC(=O)[C@@H]1CSSC[C@H](NC(=O)[C@@H](N)CCCCNC(=O)COCCOCCNC(=O)CC[C@H](NC(=O)CCCCCCCCCCCCCCCCCCC(=O)O)C(=O)O)C(=O)N[C@@H](CC(N)=O)C(=O)N[C@@H]([C@@H](C)O)C(=O)N[C@@H](C)C(=O)N[C@@H]([C@@H](C)O)C(=O)N1)[C@@H](C)O)C(=O)N1CCC[C@H]1C(=O)N1CCC[C@H]1C(=O)N[C@@H](CO)C(=O)N[C@H](C(=O)N[C@@H](CC(N)=O)C(=O)N[C@H](C(=O)NCC(=O)N1CCC[C@H]1C(=O)N[C@@H](CC(N)=O)C(=O)N[C@H](C(=O)N[C@@H](Cc1ccc(O)cc1)C(N)=O)[C@@H](C)O)C(C)C)[C@@H](C)O, synthetic analogue of human amylin; also called compound 55)
56.8	80	38.9 nM	0.686 nM	K([AEEA-γGlu-C20 diacid])CNTATCATQRLANFLRHSSPNFGAIPSSTNVGHNTY-NH2 (disulfide 2-7; N-terminus assumed; SMILES CC[C@H](C)[C@H](NC(=O)[C@H](C)NC(=O)CNC(=O)[C@H](Cc1ccccc1)NC(=O)[C@H](CC(N)=O)NC(=O)[C@@H]1CCCN1C(=O)[C@H](CO)NC(=O)[C@H](CO)NC(=O)[C@H](Cc1c[nH]cn1)NC(=O)[C@H](CCCNC(=N)N)NC(=O)[C@H](CC(C)C)NC(=O)[C@H](Cc1ccccc1)NC(=O)[C@H](CC(N)=O)NC(=O)[C@H](C)NC(=O)[C@H](CC(C)C)NC(=O)[C@H](CCCNC(=N)N)NC(=O)[C@H](CCC(N)=O)NC(=O)[C@@H](NC(=O)[C@H](C)NC(=O)[C@@H]1CSSC[C@H](NC(=O)[C@@H](N)CCCCNC(=O)COCCOCCNC(=O)CC[C@H](NC(=O)CCCCCCCCCCCCCCCCCCC(=O)O)C(=O)O)C(=O)N[C@@H](CC(N)=O)C(=O)N[C@@H]([C@@H](C)O)C(=O)N[C@@H](C)C(=O)N[C@@H]([C@@H](C)O)C(=O)N1)[C@@H](C)O)C(=O)N1CCC[C@H]1C(=O)N[C@@H](CO)C(=O)N[C@@H](CO)C(=O)N[C@H](C(=O)N[C@@H](CC(N)=O)C(=O)N[C@H](C(=O)NCC(=O)N[C@@H](Cc1c[nH]cn1)C(=O)N[C@@H](CC(N)=O)C(=O)N[C@H](C(=O)N[C@@H](Cc1ccc(O)cc1)C(N)=O)[C@@H](C)O)C(C)C)[C@@H](C)O, synthetic analogue of human amylin; also called compound 76)
